A word on the koff: it is the first-order rate constant of dissociation. Broadly, the Kd is the free concentration of one partner at which half of the binding sites on the other are occupied at equilibrium, for simple one-to-one binding. Higher therefore signals a looser complex.

Assay [1] addresses T1, NiV-G-Fc, a fusion construct between the ectodomain of NiV-G and the Fc region of human IgG1 (Nipah virus, UniProt Q9IH62 71-602).
T1 sequence: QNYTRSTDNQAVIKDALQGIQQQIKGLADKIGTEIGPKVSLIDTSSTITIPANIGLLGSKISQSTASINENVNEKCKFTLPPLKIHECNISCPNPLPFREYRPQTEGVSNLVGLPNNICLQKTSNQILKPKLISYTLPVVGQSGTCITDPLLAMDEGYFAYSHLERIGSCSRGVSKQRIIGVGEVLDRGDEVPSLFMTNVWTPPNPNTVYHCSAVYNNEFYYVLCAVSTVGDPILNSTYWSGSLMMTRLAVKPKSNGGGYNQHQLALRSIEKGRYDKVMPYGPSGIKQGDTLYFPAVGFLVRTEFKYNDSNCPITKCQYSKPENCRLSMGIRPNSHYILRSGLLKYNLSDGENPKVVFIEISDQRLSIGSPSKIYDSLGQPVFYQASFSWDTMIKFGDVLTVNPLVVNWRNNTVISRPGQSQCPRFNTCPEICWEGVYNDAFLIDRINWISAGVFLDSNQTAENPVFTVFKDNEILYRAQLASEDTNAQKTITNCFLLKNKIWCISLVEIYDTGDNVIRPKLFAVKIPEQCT
Nature of the assay: SPR; BIAcore 3000; […]; 1:1 Langmuir model. The conditions noted are these: both partners purified.

Assay [2] addresses T1, NiV-G-Fc, a fusion construct between …. The assay is described as follows: flow cytometry on cells. Conditions: one partner purified. On the technique in general: Flow cytometry measures light scatter and fluorescence of single cells or particles in a stream.
The target of assay [3] is T2, EphB4-Fc (UniProt P54760 16-539).
T2 sequence (looked up): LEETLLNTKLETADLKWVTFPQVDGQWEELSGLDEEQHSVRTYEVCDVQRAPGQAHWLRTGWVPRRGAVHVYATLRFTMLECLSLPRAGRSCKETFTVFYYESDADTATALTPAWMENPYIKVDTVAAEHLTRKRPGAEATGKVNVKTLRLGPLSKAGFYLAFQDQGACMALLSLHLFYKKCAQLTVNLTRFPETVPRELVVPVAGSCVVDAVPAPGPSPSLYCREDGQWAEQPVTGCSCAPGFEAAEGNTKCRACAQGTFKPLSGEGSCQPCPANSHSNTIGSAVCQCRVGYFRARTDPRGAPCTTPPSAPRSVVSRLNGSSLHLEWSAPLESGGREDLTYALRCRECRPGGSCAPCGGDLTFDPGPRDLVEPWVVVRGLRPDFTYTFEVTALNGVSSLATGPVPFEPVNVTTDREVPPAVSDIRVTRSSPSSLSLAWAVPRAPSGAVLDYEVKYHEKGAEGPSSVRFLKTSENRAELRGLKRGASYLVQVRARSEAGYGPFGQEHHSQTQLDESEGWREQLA
The assay is described as follows: SPR; unpublished data: BIAcore control, EphB4-Fc binding to ephrinB2-Fc; who was immobilised is not stated. Conditions: both partners purified. On the technique in general: In SPR one partner is held on a chip, and binding of the other changes the refractive index at the surface.

B1: ephrinB3-Fc (soluble Fc-fusion ephrin protein, purchased) (Fc fusion)
chain: LSLEPVYWNSANKRFQAEGGYVLYPQIGDRLDLLCPRARPPGPHSSPNYEFYKLYLVGGAQGRRCEAPPAPNLLLTCDRPDLDLRFTIKFQEYSPNLWGHEFRSHHDYYIIATSDGTREGLESLQGGVCLTRGMKVLLRVGQSPRGGAVPRKPVSEMPMERDRGAAHSLEPGKENLPGDPTSNATSRGAEGPLPPPSMP
notes: source: bought: R & D Systems
For B1, the koff in assay [1] was 0.00194 s⁻¹.

B2: human ephrinB3 stably expressed on CHO-pgsA745 cells (CHO-B3) (natural protein, UniProt Q15768 28-340, looked up)
chain: LSLEPVYWNSANKRFQAEGGYVLYPQIGDRLDLLCPRARPPGPHSSPNYEFYKLYLVGGAQGRRCEAPPAPNLLLTCDRPDLDLRFTIKFQEYSPNLWGHEFRSHHDYYIIATSDGTREGLESLQGGVCLTRGMKVLLRVGQSPRGGAVPRKPVSEMPMERDRGAAHSLEPGKENLPGDPTSNATSRGAEGPLPPPSMPAVAGAAGGLALLLLGVAGAGGAMCWRRRRAKPSESRHPGPGSFGRGGSLGLGGGGGMGPREAEPGELGIALRGGGAADPPFCPHYEKVSGDYGHPVYIVQDGPPQSPPNIYYKV
notes: also called cell surface ephrinB3
For B2, in assay [2], binding was put at a Kd of 580 pM.

B3: ephrinB2-Fc (soluble Fc-fusion ephrin protein, purchased) (Fc fusion)
chain: RSIVLEPIYWNSSNSKFLPGQGLVLYPQIGDKLDIICPKVDSKTVGQYEYYKVYMVDKDQADRCTIKKENTPLLNCARPDQDVKFTIKFQEFSPNLWGLEFQKNKDYYIISTSNGSLEGLDNQEGGVCQTRAMKILMKVGQDASSAGSARNHGPTRRPELEAGTNGRSSTTSPFVKPNPGSSTDGNSAGHSGNNLLGSEVA
B3 gave an off-rate (koff) in assay [1] of 0.000106 s⁻¹.

B4: ephrinB2-Fc (soluble Fc-fusion ephrin protein, purchased) (Fc fusion)
chain: B3 chain
modifications: Ectodomain only. The human IgG1 Fc carrier, which makes the fusion a disulfide-linked dimer, is left out. Species is inferred: the R&D Systems ephrin-B2-Fc of that period was recalled as the mouse …
Consider B4, for which binding in assay [3] was characterised by a dissociation constant (Kd) of 370 pM.

The record behind these values is PMC1361355 (PLoS Pathogens, 2006).
